We go through two proteins from paper PMC3061879, “Crystal Structure of a Coiled-Coil Domain from Human ROCK I” (PLoS ONE, 2011).

Data set [1] concerns the molecule itself. As to the kind of experiment: crystal structure; SeMet ROCK (535–700), space group P4(3)2(1)2; 13% MPD, 100 mM NaCl, 100 mM sodium acetate pH 4.9, 10 mM DTT, 5% glycerol, 10 mM spermidine; SAD phasing; four molecules (2 dimers) per asymmetric unit.
Data set [2] deals with the molecule itself. Put plainly: SEC-MALS; Superdex 200 in 20 mM Hepes pH 7.5, 150 mM NaCl, 2 mM TCEP; Wyatt miniDAWN TREOS three-angle light scattering detector and Optilab-rEX refractive index detector. For orientation: In gel filtration, larger molecules generally elute earlier.

B1: ROCK coiled-coil domain (ROCK-CC, residues 535–700) of human ROCK I (domain or fragment, UniProt Q13464 535-700, looked up)
chain: LANEKLSQLQKQLEEANDLLRTESDTAVRLRKSHTEMSKSISQLESLNRELQERNRILENSKSQTDKDYYQLQAILEAERRDRGHDSEMIGDLQARITSLQEEVKHLKHNLEKVEGERKEAQDMLNHSEKEKNNLEIDLNYKLKSLQQRLEQEVNEHKVTKARLTD
modifications: selenomethionine (SeMet) substituted protein in the crystals used for the structure
notes: Rho-associated kinase ROCK I (p160 ROCK), human, residues 535-700 of the central coiled-coil domain; The model holds residues 542–693 (A), 541–692 (B), 535–692 (C), 535–693 (D); also called ROCK (535–700); p160 ROCK (535–700); source: E. coli Rosetta2 (DE3), purified (Ni-NTA, TEV cleavage, cation exchange HiTrap SP); not shown: 6xHistidine-TEV, N-terminal, cleaved
Regarding B1, the binding result in data set [1] is given as “binds”.

B2: ROCK (535–704), coiled-coil fragment of human ROCK I (domain or fragment, UniProt Q13464 535-704, looked up)
chain: LANEKLSQLQKQLEEANDLLRTESDTAVRLRKSHTEMSKSISQLESLNRELQERNRILENSKSQTDKDYYQLQAILEAERRDRGHDSEMIGDLQARITSLQEEVKHLKHNLEKVEGERKEAQDMLNHSEKEKNNLEIDLNYKLKSLQQRLEQEVNEHKVTKARLTDKHQS
notes: Rho-associated kinase ROCK I (p160 ROCK), human, residues 535-704 of the central coiled-coil domain; The purification is described only for ROCK (535–700); also called ROCK-CC (as called in the text and legend title of the SEC-MALS experiment); source: E. coli Rosetta2 (DE3), purified
The stoichiometry N is a count of units in the complex or per binding partner. Consider B2, for which, in data set [2], the “stoichiometry N” value came out at 2.
